Patent US20260226192

Tested on: Engineered trastuzumab antibody design 18 [anti-Her2 ScFv-FC]
Sequence (chain, as listed by the source, change not shown): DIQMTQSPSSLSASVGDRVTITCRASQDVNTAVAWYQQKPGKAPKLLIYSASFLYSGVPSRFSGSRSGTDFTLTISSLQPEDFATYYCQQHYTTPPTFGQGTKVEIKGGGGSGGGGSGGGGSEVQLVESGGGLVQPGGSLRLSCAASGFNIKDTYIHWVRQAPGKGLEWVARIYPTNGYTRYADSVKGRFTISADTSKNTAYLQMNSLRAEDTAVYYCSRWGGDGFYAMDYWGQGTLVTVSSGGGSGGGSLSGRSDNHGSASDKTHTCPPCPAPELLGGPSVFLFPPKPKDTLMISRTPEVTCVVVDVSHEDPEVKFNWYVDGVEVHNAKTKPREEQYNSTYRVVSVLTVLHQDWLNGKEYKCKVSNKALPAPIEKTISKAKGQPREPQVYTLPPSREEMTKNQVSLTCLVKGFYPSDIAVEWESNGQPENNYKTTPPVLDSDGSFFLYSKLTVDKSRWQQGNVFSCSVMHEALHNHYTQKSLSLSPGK

uPA protease
protease digestion with uPA (1:1 molar), SDS-PAGE: uPA cleaved the antibody variants and generated F(ab) fragments in a similar manner as it did for the other designs
